The text below walks through data of article PMC11255897.

The target of the test is Ras binding domain (RBD) of the yeast Ras effector Byr2 fused to GST. Description: pull-down with GST-Byr2(RBD), Flag immunoblot densitometry. Conditions: read off a plot; for percent of parent (% of RasC(WT)-CA binding) / percent of parent (% of wild-type RasC peak (10 s cAMP)): parent: est. 100; for percent of parent (% of wild-type RasC peak (10 s cAMP)): 10 s cAMP stimulation; for response (% of wild-type RasC peak (10 s cAMP)): basal (before cAMP stimulation), parent: est. 20. Background: In western blotting, separated proteins are transferred to a membrane and probed.

As to “constitutively active (CA) RasC-Q62L mutant, Flag-tagged (from UniProt P32253) A31D”, the percent of parent (% of RasC(WT)-CA binding) came to 240. Same read-out and setting: in the case of “constitutively active (CA) RasC-Q62L mutant, Flag-tagged (from UniProt P32253) A31K” it was 290; in that of “constitutively active (CA) RasC-Q62L mutant, Flag-tagged (from UniProt P32253) A31L”, 200.

Regarding “constitutively active (CA) RasC-Q62L mutant, Flag-tagged (from UniProt P32253) K138A; R164A; K167A”, the percent of parent (% of RasC(WT)-CA binding) came out at 180.

Take “constitutively active (CA) RasC-Q62L mutant, Flag-tagged (from UniProt P32253) K182A; K183A; R184A”: the percent of parent (% of RasC(WT)-CA binding) amounted to 210.

Regarding “constitutively active (CA) RasC-Q62L mutant, Flag-tagged (from UniProt P32253) Y41A”, the percent of parent (% of RasC(WT)-CA binding) is 12. For “wild-type Flag-RasC (from UniProt P32253) A31D”, the percent of parent (% of wild-type RasC peak (10 s cAMP)) was 42 and the response (% of wild-type RasC peak (10 s cAMP)) came to 27. On the same counts, the results for “wild-type Flag-RasC (from UniProt P32253) A31K” are 130 and 28. On the same counts, the results for “wild-type Flag-RasC (from UniProt P32253) A31L” are 170 and 35. In the case of “wild-type Flag-RasC (from UniProt P32253) C186A”, the percent of parent (% of wild-type RasC peak (10 s cAMP)) turned out to be 2 and the response (% of wild-type RasC peak (10 s cAMP)) is 2.

On to “wild-type Flag-RasC (from UniProt P32253) E38A”, for which the percent of parent (% of wild-type RasC peak (10 s cAMP)) came out at 10 and the response (% of wild-type RasC peak (10 s cAMP)) was determined as 5. On the same counts, the results for “wild-type Flag-RasC (from UniProt P32253) E38A; N39A; S40A” are 18 and 19. For “wild-type Flag-RasC (from UniProt P32253) K138A; R164A; K167A”, the percent of parent (% of wild-type RasC peak (10 s cAMP)) was determined as 100. On to “wild-type Flag-RasC (from UniProt P32253) K182A; K183A; R184A”, for which the percent of parent (% of wild-type RasC peak (10 s cAMP)) amounted to 17 and the response (% of wild-type RasC peak (10 s cAMP)) was determined as 8.

Consider “wild-type Flag-RasC (from UniProt P32253) Q62L”, for which the response (% of RasC(WT)-CA binding) (parent: est. 15) was found to be 100.

On to “wild-type Flag-RasC (from UniProt P32253) T36A”, for which the percent of parent (% of wild-type RasC peak (10 s cAMP)) is 8 and the response (% of wild-type RasC peak (10 s cAMP)) came to 11.

As to “wild-type Flag-RasC (from UniProt P32253) Y41A”, the percent of parent (% of wild-type RasC peak (10 s cAMP)) was determined as 23.
